# Source: patent publication US20260166158A1, “HSP90-BINDING CONJUGATES AND FORMULATIONS THEREOF” (Fusion Pharmaceuticals Inc., priority 2019, published 2026)
# Columns and labels:
# Assay type in all cases: in vivo
# [1] = test system: NCI-H460 tumor model; assay: Distribution of radioactive (177Lu) versus non-radioactive (175Lu) analog of CMP51; settings: radioactive analog comprising Lu177
# Procedure: In another study with the NCI-H460 tumor model, the distribution of the radioactive (hot) analog of CMP51 (177Lu) and the distribution of the non-radioactive (cold) analog of CMP51 (175Lu) at 24 hours and 72 hours were tested and compared.
# [2] = test system: NCI-H460 tumor-bearing mice (lung cancer); assay: Biodistribution: lutetium accumulation in tumor, plasma and healthy tissues by ICP-MS; settings: 24 h; for Kidney uptake, % ID/g 24 h / Liver uptake, % ID/g 24 h / Plasma, % ID/g 24 h / Tumor uptake, % ID/g, 24 h: second table
# How it was run: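 NCI-H460 tumor-bearing mice received 0.5 mg/kg lutetium conjugates; at set time points tumor, liver, kidneys and plasma were collected. Lutetium content measured by ICP-MS and expressed as % ID/g, with 24 h tumor/kidney, tumor/liver and tumor/plasma ratios.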
# [3] = test system: NCI-H460 tumor model; assay: Distribution of cold (Lu175) analog of CMP6
# Procedure: In yet another study with the NCI-H460 tumor model, the distribution of the cold analog of CMP6 was measured at 24 hours and 72 hours.
# [4] = cold analog, 24 hours and 72 hours, FIG. 2
structure (smiles),measurement,setting,value
CCNC(=O)c1nnc(-c2cc(C(C)C)c(O)cc2O)n1-c1ccc(CN2CCN(C(=O)CCNC(=O)[C@@H](CCC(=O)O)NC(=O)[C@@H](CCC(=O)O)NC(=O)[C@@H](CCC(=O)O)NC(=O)COCCOCCNC(=O)CCCCn3cc(CN(CCCNC(=O)CC[C@H](C(=O)O)N4CCN5CCN6CC(=O)[O][Lu]([O]C(=O)C5)[C]5(C6)OC(=O)CN5CC4)C(=O)CCCNC(=O)CCCc4ccc(I)cc4)nn3)CC2)cc1 (some centres unmarked) [CMP51],tumor exposure selectivity (FIG. 1 legend),[1],selective tumor exposure with the exception of kidney
same,T/K (Tumor/Kidney ratio),[2],0.7
same,T/L (Tumor/Liver ratio),[2],5.6
same,T/P (Tumor/Plasma ratio),[2],2.5
same,"Kidney uptake, % ID/g 24 h",[2],10.37 % ID/g
same,"Liver uptake, % ID/g 24 h",[2],1.35 % ID/g
same,"Plasma, % ID/g 24 h",[2],3.01 % ID/g
same,"Tumor uptake, % ID/g, 24 h",[2],7.54 % ID/g
CCNC(=O)c1nnc(-c2cc(C(C)C)c(O)cc2O)n1-c1ccc(OC2CCN(C(=O)CCOCCOCCOCCOCCNC(=O)[C@H](CCCCNC(=O)CCCc3ccc(I)cc3)NC(=O)CN3CCN4CCN5CCN(CC3)CC(=O)[O][Lu]([O]C(=O)C4)[O]C(=O)C5)CC2)cc1 [CMP6],kidney uptake and retention,[3]; [4],significantly reduced kidney uptake and retention
same,liver uptake,[3]; [4],significantly reduced
same,tumor to liver and tumor to kidney ratios at 72 hours,"[3]; cold analog, 72 hours versus 24 hours",enhanced at 72 hours
same,tumor to liver and tumor to kidney ratios,"[3]; cold analog, FIG. 2",High tumor to liver and tumor to kidney ratios
same,tumor retention selectivity (FIG. 2 legend),[3]; non-radioactive analog comprising Lu175,selective tumor retention over kidney and liver
same,T/K (Tumor/Kidney ratio),[2],5.48
same,T/L (Tumor/Liver ratio),[2],4.98
same,T/P (Tumor/Plasma ratio),[2],1.98
same,"Kidney uptake, % ID/g 24 h",[2],0.62 % ID/g
same,"Liver uptake, % ID/g 24 h",[2],0.68 % ID/g
same,"Plasma, % ID/g 24 h",[2],1.72 % ID/g
same,"Tumor uptake, % ID/g, 24 h",[2],3.40 % ID/g
